This is an account of results in patent publication US20150210766A1 (SAMSUNG ELECTRONICS, published 2015).

The target of one assay is Her3-Fc (R&D Systems) (UniProt P21860). Briefly: SPR, Biacore T100; bispecific antibody captured (about 90 to 120 RU) by human Fab binder on a CM5 chip, Her3-Fc injected at various concentrations.
Assay [1] deals with T1, human c-Met/Fc fusion protein (R&D Systems) (human, UniProt P08581 25-932).
T1 construct: Bought reagent; also called human c-Met/Fc protein; not shown: Fc part of the bought fusion protein, not described
The assay can be described thus: ELISA, human c-Met/Fc fusion protein coated on the plate, hybridoma culture added. As for the experimental part: Human c-Met/Fc fusion protein was seeded in an amount of […] (2 μg/mL)/well to microtiter plates and allowed to adhere to the surface of each well. The […] that remained unbound was removed by washing.
The hybridoma cell culture obtained in Reference Example 1.1.2 was added in an amount of […] to each well of the plates and incubated for 1 hour. The cells remaining unreacted were washed out with a sufficient amount of Tris-buffered saline and Tween 20 (TBST). Goat anti-mouse IgG-horseradish peroxidase (HRP) was added to the plates and incubated for 1 hour at room temperature. The plates were washed with a sufficient amount of TBST, followed by reacting the peroxidase with a substrate (OPD). Absorbance at 450 nm was measured on an ELISA reader.
(In general: In an ELISA, binding on a coated surface is turned into a signal by an enzyme label.)

T1 sequence (P08581 25-932 limits assumed): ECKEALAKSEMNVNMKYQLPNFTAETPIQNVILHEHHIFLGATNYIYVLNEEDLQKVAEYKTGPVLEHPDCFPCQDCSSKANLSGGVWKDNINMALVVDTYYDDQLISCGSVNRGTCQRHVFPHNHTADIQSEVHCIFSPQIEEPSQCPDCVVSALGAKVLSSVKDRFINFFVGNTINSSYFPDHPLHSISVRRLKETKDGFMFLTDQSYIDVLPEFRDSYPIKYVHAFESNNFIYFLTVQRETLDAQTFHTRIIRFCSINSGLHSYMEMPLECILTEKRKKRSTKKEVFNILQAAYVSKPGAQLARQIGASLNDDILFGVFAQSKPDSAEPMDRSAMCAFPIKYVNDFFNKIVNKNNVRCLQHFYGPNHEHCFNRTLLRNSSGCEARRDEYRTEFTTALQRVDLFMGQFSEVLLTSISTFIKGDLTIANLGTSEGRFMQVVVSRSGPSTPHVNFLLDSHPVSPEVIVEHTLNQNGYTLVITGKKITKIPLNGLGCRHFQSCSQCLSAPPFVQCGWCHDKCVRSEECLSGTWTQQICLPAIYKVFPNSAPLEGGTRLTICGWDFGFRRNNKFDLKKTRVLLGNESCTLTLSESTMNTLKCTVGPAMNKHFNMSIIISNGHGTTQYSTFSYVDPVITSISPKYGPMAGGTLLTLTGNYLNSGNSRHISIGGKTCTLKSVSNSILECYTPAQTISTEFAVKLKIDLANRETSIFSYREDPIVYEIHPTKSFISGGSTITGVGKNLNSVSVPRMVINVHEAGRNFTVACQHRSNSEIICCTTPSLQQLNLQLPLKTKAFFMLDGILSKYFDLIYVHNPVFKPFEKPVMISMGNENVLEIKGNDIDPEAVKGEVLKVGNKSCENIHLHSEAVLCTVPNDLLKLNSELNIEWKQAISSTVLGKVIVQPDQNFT
Chain of Her3-Fc (R&D Systems) (P21860 20-643 limits assumed): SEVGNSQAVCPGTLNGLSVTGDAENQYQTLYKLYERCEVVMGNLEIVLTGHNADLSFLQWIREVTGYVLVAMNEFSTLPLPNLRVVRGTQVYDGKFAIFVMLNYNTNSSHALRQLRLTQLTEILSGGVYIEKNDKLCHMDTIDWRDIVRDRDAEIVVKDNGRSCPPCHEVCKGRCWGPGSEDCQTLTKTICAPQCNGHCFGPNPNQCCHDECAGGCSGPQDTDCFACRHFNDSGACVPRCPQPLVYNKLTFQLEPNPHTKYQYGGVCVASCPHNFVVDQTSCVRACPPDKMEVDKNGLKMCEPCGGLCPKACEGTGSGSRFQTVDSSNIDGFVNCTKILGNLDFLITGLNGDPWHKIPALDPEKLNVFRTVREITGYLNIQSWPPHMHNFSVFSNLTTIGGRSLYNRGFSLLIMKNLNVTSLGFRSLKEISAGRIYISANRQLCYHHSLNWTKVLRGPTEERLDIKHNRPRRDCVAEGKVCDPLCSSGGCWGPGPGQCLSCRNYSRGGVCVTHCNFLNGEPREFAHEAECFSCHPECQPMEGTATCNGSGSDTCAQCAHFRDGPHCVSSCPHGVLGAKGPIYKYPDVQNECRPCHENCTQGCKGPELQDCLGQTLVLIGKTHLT

B1: MH3-05, anti-c-Met/anti-Her3 bispecific antibody in which the modified anti-Her3 scFv is fused at the c-terminal of L3-1Y-IgG2 (bispecific antibody, part only; not given: nothing needed for Her3 binding, not shown: another chain or arm of the molecule; small tags and cut ends)
heavy: EVQLVESGGGLVQPGGSLRLSCAASGFTFTDYYMSWVRQAPGKGLEWLGFIRNKANGYTTEYSASVKGRFTISRDNSKNTLYLQMNSLRAEDTAVYYCARDNWFAYWGQGTLVTVSSASTKGPSVFPLAPCSRSTSESTAALGCLVKDYFPEPVTVSWNSGALTSGVHTFPAVLQSSGLYSLSSVVTVPSSNFGTQTYTCNVDHKPSNTKVDKTVERKCCVECPPCPAPPVAGPSVFLFPPKPKDTLMISRTPEVTCVVVDVSHEDPEVQFNWYVDGVEVHNAKTKPREEQFNSTFRVVSVLTVVHQDWLNGKEYKCKVSNKGLPAPIEKTISKTKGQPREPQVYTLPPSREEMTKNQVSLTCLVKGFYPSDIAVEWESNGQPENNYKTTPPMLDSDGSFFLYSKLTVDKSRWQQGNVFSCSVMHEALHNHYTQKSLSLSPGKGGGGSGGGGSQVQLQESGGGLVKPGGSLRLSCAASGFTFSSYSMNWVRQAPGKGLEWVSSISSSSSYIYYADSVKGRFTISRDNAKNSLYLQMNSLRAEDTAVYYCAREDLTPFDYWGQGTLVTVSS
VL: LPVLTQPPSVSVAPGQTARITCGGDNIGSKSVHWYQQKPGQAPVLVVYDDSDRPSGIPERISGSNSGNTATLTISRVEAGDEADFYCQVWDNSVDLLFGGGTKLTVL
light: DIQMTQSPSSLSASVGDRVTITCKSSQSLLASGNQNNYLAWYQQKPGKAPKMLIIWASTRVSGVPSRFSGSGSGTDFTLTISSLQPEDFATYYCQQSYSRPYTFGQGTKVEIKRTVAAPSVFIFPPSDEQLKSGTASVVCLLNNFYPREAKVQWKVDNALQSGNSQESVTEQDSKDSTYSLSSTLTLSKADYEKHKVYACEVTHQGLSSPVTKSFNRGEC
modifications: In the real molecule the scFv-VL chain is joined covalently to the C-terminus of the heavy chain's VH (SEQ 115) through the undisclosed linker. It is written as a separate chain only because that linker has no letters.
One may read the Kd as the constant that tells how readily two partners part at equilibrium. Low values mean a tighter complex, high ones a looser complex. With B1, the Kd with Her3-Fc (R&D Systems) is 550 pM.

B2: AbF46, mouse monoclonal antibody to c-Met (hybridoma KCLRF-BP-00220) (antibody, V domains shown)
VH: EVKLVESGGGLVQPGGSLRLSCATSGFTFTDYYMSWVRQPPGKALEWLGFIRNKANGYTTEYSASVKGRFTISRDNSQSILYLQMDTLRAEDSATYYCARDNWFAYWGQGTLVTVSA
VL: DILMTQSPSSLTVSAGEKVTMSCKSSQSLLASGNQNNYLAWHQQKPGRSPKMLIIWASTRVSGVPDRFIGSGSGTDFTLTINSVQAEDLAVYYCQQSYSAPLTFGAGTKLELK
notes: Tested as hybridoma culture in the screening ELISA; the single clone selected produces AbF46; also called mouse antibody AbF46
With B2, the binding result in assay [1] is listed as “binds”.
